This note sets out measurements from patent publication US20120121576A1 (ACCELERON PHARMA, published 2012).

Test [1] has as its target ActRIIA expressed by A204 human rhabdomyosarcoma cells (human, UniProt P27037 20-513). The experiment in a line: cell-based or functional assay.
Test [2] addresses T1, monomeric ActRIIA tagged with histidine (ActRIIA-His) (human, UniProt P27037 20-135).
T1 construct: also called monomeric extracellular domain of ActRIIA tagged with histidine
As to the kind of experiment: SPR (BIACORE). In general terms: Surface plasmon resonance follows binding to a sensor surface in real time, without labels.

The target in test [3] is T2, ActRIIA-Fc (ActRIIA-mFc, dimeric protein) (human, UniProt P27037 20-135). The experiment in a line: SPR (BIACORE): Ab-14E1 captured on a CM5 chip by immobilized anti-mFc IgG, ActRIIA-mFc injected at different concentrations, nonlinear regression. The text has this:
(§1) FIG. 9 depicts the kinetics of ActRIIA-Fc binding to Ab-14E1 as determined by BIACORE™-based analysis. A. Ab-14E1 was captured on a chip with covalently immobilized anti-mFC IgG and then exposed to ActRIIA-Fc at different concentrations. […] RU, relative units.

For test [4], the target named is T2, ActRIIA-Fc (ActRIIA-mFc, dimeric …). The experiment in a line: SPR (BIACORE); Ab-14E1 captured by immobilized anti-mFc IgG, ActRIIA-Fc as analyte.
Source text: as §1

T2 sequence (P27037 20-135 limits assumed): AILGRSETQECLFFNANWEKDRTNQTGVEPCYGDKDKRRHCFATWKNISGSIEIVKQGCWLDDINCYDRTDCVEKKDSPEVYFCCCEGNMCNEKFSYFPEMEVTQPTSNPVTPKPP
T1 sequence (P27037 other isoform, or with tags, fused parts or gaps limits assumed): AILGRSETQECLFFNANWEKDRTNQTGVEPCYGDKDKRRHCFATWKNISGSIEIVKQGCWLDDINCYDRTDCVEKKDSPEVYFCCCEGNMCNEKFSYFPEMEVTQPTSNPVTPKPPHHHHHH
Sequence of ActRIIA expressed by A204 human rhabdomyosarcoma cells (P27037 20-513 limits assumed): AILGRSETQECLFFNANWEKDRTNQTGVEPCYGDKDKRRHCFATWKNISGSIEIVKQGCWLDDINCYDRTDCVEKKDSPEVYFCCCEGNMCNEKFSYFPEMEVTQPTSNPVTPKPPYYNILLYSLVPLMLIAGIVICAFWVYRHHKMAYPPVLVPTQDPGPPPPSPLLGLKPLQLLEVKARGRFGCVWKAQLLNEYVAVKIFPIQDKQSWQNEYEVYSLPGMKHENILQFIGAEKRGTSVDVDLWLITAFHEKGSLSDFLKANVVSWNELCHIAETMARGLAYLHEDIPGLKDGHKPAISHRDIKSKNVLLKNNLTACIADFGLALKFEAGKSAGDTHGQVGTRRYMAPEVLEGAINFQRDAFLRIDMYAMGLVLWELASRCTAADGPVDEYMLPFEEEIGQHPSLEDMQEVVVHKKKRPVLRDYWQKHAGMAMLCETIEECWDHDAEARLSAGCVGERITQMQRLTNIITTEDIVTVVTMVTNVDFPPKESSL

B1: Ab-14E1 (antibody 14E1; hybridoma subclone 14E1.H8.H1) (antibody, V domains shown)
VH: DVQLQESGPGLVKPSQSLSLTCSVTGYSITSGYYWNWIRQFPGNKLEWMGYISYDGSNNYNPSLINRISITRDTSKNQFFLKLNSVTTEDTATYFCASYAYRNDVRFAYWGQGTLVTVSA
VL: DIQMTQTTSSLSASLGDRVTISCRASQDISNFLNWYQQKPDGTVKLLIYFTSRLHSGVPSRFSGSGSGTDYSLTITNLEQEDIATYFCQQGNTLPWTFGGGTKLEIK
The kon is the second-order rate constant of association. One may read the Kd as the concentration at which binding is half-saturated. A higher Kd goes with a looser complex. As usually defined, the koff is a measure of how fast the partners let go of each other. Read a low koff as a long-lived complex. In the case of B1, in test [1], the “IC50 of inhibition of activin A-stimulated reporter gene expression (pGL3(CAGA)12 luciferase) in A204 cells” value was 57.1 ng/ml. Further, the “fold lower affinity than for ActRIIA-mFc” value in test [2] stood at 10 fold. The kon in test [3] was determined as 86000 M⁻¹ s⁻¹. Further, in test [4], the Kd is approximately 0.012 nM and the off-rate constant (koff) was approximately 1e-06 s⁻¹.
